The values below come from PMC2265480, “Identification of Synaptic Targets of Drosophila Pumilio”.

The target in data set [1] is T1, GST-Pum (Pumilio RNA-binding domain) (Drosophila, UniProt P25822 1091-1533).
T1 sequence: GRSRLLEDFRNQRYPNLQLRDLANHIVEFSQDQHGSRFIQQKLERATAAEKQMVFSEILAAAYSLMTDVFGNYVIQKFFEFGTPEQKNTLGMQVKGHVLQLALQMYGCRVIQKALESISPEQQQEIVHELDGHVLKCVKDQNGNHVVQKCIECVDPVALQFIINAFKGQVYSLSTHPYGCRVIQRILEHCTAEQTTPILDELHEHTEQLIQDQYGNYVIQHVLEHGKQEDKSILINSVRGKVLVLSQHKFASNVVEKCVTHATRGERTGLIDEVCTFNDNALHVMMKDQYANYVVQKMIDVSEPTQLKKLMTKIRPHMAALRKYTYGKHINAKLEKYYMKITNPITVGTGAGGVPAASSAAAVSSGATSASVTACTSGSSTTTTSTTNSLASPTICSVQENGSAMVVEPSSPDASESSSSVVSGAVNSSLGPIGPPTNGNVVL
Put plainly: EMSA. Conditions: 5:1 protein:RNA, 10 mM Hepes/KOH pH 7.4, 50 mM KCl, 3 mM MgCl2, 1 mM EDTA, 2 mM DTT, 0.1 mg/ml BSA, 0.1 mg/ml yeast tRNA, 0.01% Tween-20, 0.2 U RNasin, 10% glycerol, 10 ul ….

Data set [2] has as its target T2, GST-Pum (Pumilio RNA-binding domain) (Drosophila) (UniProt P25822).
T2 sequence: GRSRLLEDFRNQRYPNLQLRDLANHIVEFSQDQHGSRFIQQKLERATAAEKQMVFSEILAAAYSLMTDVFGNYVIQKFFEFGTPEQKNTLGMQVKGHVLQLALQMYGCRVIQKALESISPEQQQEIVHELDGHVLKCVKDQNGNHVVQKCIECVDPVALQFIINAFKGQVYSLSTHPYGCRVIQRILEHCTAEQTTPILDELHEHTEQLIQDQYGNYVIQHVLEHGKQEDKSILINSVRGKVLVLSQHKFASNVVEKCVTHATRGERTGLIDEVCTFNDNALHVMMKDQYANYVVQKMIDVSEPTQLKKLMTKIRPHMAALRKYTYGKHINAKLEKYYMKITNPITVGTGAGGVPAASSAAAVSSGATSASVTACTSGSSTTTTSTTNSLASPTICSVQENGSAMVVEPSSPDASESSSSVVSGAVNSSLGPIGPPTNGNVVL
Put plainly: EMSA. Conditions: 5:1 protein:RNA (50 fmol:10 fmol); one complex; 10 mM Hepes/KOH pH 7.4, 50 mM KCl, 3 mM MgCl2, 1 mM EDTA, 2 mM DTT, 0.1 mg/ml BSA, 0.1 mg/ml yeast tRNA, 0.01% Tween-20, 0.2 U RNasin, 10% glycerol, 10 ul …. For orientation: In EMSA bound probe runs differently from free probe, usually more slowly.

Data set [3] addresses T1, GST-Pum (Pumilio RNA-binding domain). Briefly: EMSA; up to 50 fmol protein:10 fmol RNA; 10 mM Hepes/KOH pH 7.4, 50 mM KCl, 3 mM MgCl2, 1 mM EDTA, 2 mM DTT, 0.1 mg/ml BSA, 0.1 mg/ml yeast tRNA, 0.01% Tween-20, 0.2 U RNasin, 10% glycerol, 10 ul, 20 min room temperature; 5% native gel in 1x TBE. Conditions: protein: recombinant; tags: N-terminal GST; label: radiolabel.

In data set [1] (one complex), AP-1gamma 3'UTR 85-191 yielded a binding signal of 21.8 % bound.

In data set [2], “AUUAUUUUGUUGUCGAAAAUUGUACAUAAGCC [hb NRE2]” returned a binding signal of 67.9 % bound.

Consider Ace 3'UTR 722-1095, for which the binding signal in data set [1] is 33 % bound.

As to Csp 3'UTR 1218-1545, the binding signal in data set [1] (2 sites) amounted to 57.2 % bound.

Turning to EP2237 3'UTR 340-514, the binding signal in data set [1] was 20.5 % bound.

Take Gad1 3'UTR 704-973: in data set [1] (2 sites), the binding signal was found to be 35.9 % bound.

dlg1 (isoforms A and D) 3'UTR 1485-1539 returned a binding signal in data set [1] (one complex) of 56.9 % bound.

Consider dlg1 isoform C 3'UTR 744-829, for which, in data set [1] (not bound even at high molar ratio), the binding signal came to 0 % bound.

In data set [1] (2 sites), mam 3'UTR 642-1110 displayed a binding signal of 73.8 % bound.

The molecule shn 3'UTR 809-1013 gave a binding signal in data set [1] (2 sites) of 59 % bound.

Turning to GGUAGUGCAUACAACUUCCUU (ssRNA) [CRS random control RNA], in data set [3], the binding result was “no binding”.
